Source: patent EP3597215A1 (dated 2020)

Target: prostate-specific membrane antigen (PSMA) (UniProt Q04609 1-750, limits assumed)
Assay: cell-based or functional assay

Sequence of prostate-specific membrane antigen (PSMA) (Q04609 whole entry): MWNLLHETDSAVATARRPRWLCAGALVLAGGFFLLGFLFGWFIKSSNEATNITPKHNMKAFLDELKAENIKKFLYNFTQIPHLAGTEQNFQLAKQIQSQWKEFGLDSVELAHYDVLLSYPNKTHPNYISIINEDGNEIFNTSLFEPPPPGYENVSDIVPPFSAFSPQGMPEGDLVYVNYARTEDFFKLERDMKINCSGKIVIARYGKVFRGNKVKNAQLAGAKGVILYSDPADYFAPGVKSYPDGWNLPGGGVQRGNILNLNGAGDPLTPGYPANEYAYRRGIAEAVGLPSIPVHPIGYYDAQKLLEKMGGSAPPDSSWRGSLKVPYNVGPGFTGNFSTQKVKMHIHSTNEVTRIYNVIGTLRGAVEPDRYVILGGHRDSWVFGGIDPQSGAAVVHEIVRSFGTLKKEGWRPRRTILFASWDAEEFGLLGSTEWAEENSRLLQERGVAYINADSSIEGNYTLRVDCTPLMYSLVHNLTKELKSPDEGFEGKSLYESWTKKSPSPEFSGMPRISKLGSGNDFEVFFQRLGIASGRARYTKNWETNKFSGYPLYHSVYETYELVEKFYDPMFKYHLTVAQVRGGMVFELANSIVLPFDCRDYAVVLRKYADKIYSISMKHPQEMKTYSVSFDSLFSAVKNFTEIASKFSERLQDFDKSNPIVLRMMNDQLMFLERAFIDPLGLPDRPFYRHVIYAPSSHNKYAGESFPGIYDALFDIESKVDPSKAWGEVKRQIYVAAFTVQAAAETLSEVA

long-term T cell proliferation (expansion over 31 days) of 19z1+P28BB T cells on AAPCs expressing CD19 and PSMA: 58 fold
B1: P28BB (anti-PSMA chimeric costimulatory receptor) (other)
chain: EVQLQQSGPELVKPGTSVRISCKTSGYTFTEYTIHWVKQSHGKSLEWIGNINPNNGGTTYNQKFEDKATLTVDKSSSTAYMELRSLTSEDSAVYYCAAGWNFDYWGQGTTVTVSSGGGGSGGGGSGGGGSDIVMTQSHKFMSTSVGDRVSIICKASQDVGTAVDWYQQKPGQSPKLLIYWASTRHTGVPDRFTGSGSGTDFTLTITNVQSEDLADYFCQQYNSYPLTFGAGTMLDLKRAAAIEVMYPPPYLDNEKSNGTIIHVKGKHLCPSPLFPGPSKPFWVLVVVGGVLACYSLLVTVAFIIFWVRSKRSRLLHSDYMNMTPRRPGPTRKHYQPYAPPRDFAAYRSRFSVVKRGRKKLLYIFKQPFMRPVQTTQEEDGCSCRFPEEEEGGCE
